Results on four molecules are retold here after US20120164137A1 (MORPHOTEK, published 2012).

Assay [1] concerns the target T1, Human FRA on IGROV-1 human ovarian adenocarcinoma cells (human, UniProt P15328 25-234). Briefly: cell-based or functional assay.
Assay [2] addresses T1, Human FRA on IGROV-1 human ovarian …. The experiment in a line: cell-based or functional assay. The source holds these as a separate data set.
Assay [3] has the same target. Briefly: cell-based or functional assay. This is another data set of the same source.
Assay [4] deals with T2, Recombinant human folate receptor alpha (FRA) (human, UniProt P15328 25-234).
T2 construct: Immobilised on a CM5 chip by amine coupling; also called FR-alpha
T2 sequence (P15328 25-234 limits assumed): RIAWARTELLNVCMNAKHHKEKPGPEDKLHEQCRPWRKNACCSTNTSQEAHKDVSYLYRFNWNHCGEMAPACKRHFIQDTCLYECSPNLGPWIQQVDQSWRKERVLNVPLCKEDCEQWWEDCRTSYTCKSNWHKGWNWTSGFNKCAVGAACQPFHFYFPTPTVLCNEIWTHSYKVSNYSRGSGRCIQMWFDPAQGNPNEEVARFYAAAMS
Briefly: SPR, FRA on CM5 chip, parallel line analysis; reference standard = 100%.
Experimental: The surface was regenerated between cycles by flushing with 10 mM glycine pH 2.0.

T1 sequence (P15328 25-234 limits assumed): as above

B1: MORAb-003 anti-FRA antibody, lot NB859-24 (harvested 10 days after initiation of culture) (antibody, human IgG1, kappa, V domains shown)
VH: EVQLVESGGGVVQPGRSLRLSCSASGFTFSGYGLSWVRQAPGKGLEWVAMISSGGSYTYYADSVKGRFAISRDNAKNTLFLQMDSLRPEDTGVYFCARHGDDPAWFAYWGQGTPVTVSS
VL: DIQLTQSPSSLSASVGDRVTITCSVSSSISSNNLHWYQQKPGKAPKPWIYGTSNLASGVPSRFSGSGSGTDYTFTISSLQPEDIATYYCQQWSSYPYMYTFGQGTKVEIKR
modifications: N-linked neutral glycans at Asn299 in SEQ ID NO: 5
notes: also called Day 10 harvest
Turning to B1, in assay [1], the “INTL % (0 Min)” value is 0%, the “INTL % (15 min)” value was determined as 1%, the “INTL % (30 min)” value was determined as 18% and the “INTL % (60 min)” value came to 40%. Moreover, the “INTL % (150 min)” value in assay [1] came out at 58%. The “IC50 (Hum-ZAP secondary immunotoxin killing of IGROV-1 cells)” value in assay [2] worked out at 15 ng·mL. Besides, in assay [3], the “Half-Maximal Internalization Constant” value came out at 44.6 min and the “Internalization IC50” value was determined as 0.015 µg/mL. The “Measured Potency (%)” value in assay [4] stood at 33.8%.

B2: MORAb-003 anti-FRA antibody, lot NB859-27 (harvested 20 days after initiation of culture) (antibody, human IgG1, kappa, V domains shown)
VH: B1 VH
VL: B1 VL
modifications: N-linked neutral glycans at Asn299 in SEQ ID NO: 5
notes: also called Day 20 harvest
Regarding B2, in assay [1], the “INTL % (0 Min)” value was found to be 0%, the “INTL % (15 min)” value was determined as 1%, the “INTL % (30 min)” value was determined as 19% and the “INTL % (60 min)” value amounted to 40%. Also, the “INTL % (150 min)” value in assay [1] is 51%. For the same molecule, the “IC50 (Hum-ZAP secondary immunotoxin killing of IGROV-1 cells)” value in assay [2] was 23 ng·mL. Also, in assay [3], the “Half-Maximal Internalization Constant” value came to 37.3 min and the “Internalization IC50” value was 0.023 µg/mL. Besides, the “Measured Potency (%)” value in assay [4] was determined as 53.3%.

B3: MORAb-003 anti-FRA antibody, lot NB859-26 (harvested 17 days after initiation of culture) (antibody, human IgG1, kappa, V domains shown)
VH: B1 VH
VL: B1 VL
modifications: N-linked neutral glycans at Asn299 in SEQ ID NO: 5
notes: also called Day 17 harvest
As to B3, in assay [1], the “INTL % (0 Min)” value is 0%, the “INTL % (30 min)” value stood at 23%, the “INTL % (60 min)” value is 43% and the “INTL % (150 min)” value came to 56%. Besides, the “IC50 (Hum-ZAP secondary immunotoxin killing of IGROV-1 cells)” value in assay [2] stood at 36 ng·mL. Moreover, in assay [3], the “Half-Maximal Internalization Constant” value worked out at 36.6 min and the “Internalization IC50” value worked out at 0.036 µg/mL. The “Measured Potency (%)” value in assay [4] is 27.5%.

B4: MORAb-003 anti-FRA antibody, lot NB859-25 (harvested 14 days after initiation of culture) (antibody, human IgG1, kappa, V domains shown)
VH: B1 VH
VL: B1 VL
modifications: N-linked neutral glycans at Asn299 in SEQ ID NO: 5
notes: also called Day 14 harvest; positive control (round 3)
As to B4, in assay [1], the “INTL % (0 Min)” value turned out to be 0%, the “INTL % (15 min)” value came out at 1%, the “INTL % (30 min)” value was determined as 20% and the “INTL % (60 min)” value is 44%. Also, the “INTL % (150 min)” value in assay [1] was 61%. The “IC50 (Hum-ZAP secondary immunotoxin killing of IGROV-1 cells)” value in assay [2] came out at 32 ng·mL. Moreover, in assay [3], the “Half-Maximal Internalization Constant” value was determined as 42 min and the “Internalization IC50” value came out at 0.032 µg/mL. Moreover, the “Measured Potency (%)” value in assay [4] was determined as 51.9%.
